Laboratory results as given in patent US20220257704A1, “COMBINATION OF CHEMOTHERAPY WITH RECOMBINANT S. ROLFSII LECTIN” (Unichem Laboratories Ltd, priority 2018, published 2022).
“And” between values parts separate entries of the source, which are not always exact repeats. Identical values can stand only once.

Columns and labels:
Assay in all cases: MTT cytotoxicity assay, 48 h, alone and in combination (IC50 and Combination Index)
Format in all cases: cell-based
T24 cell line = test system: T24 cell line
Description: The cell were kept in contact with the recombinant lectin of SEQ ID NO: 1 and the chemotherapy agent for 48 h and the cytotoxic effect (percentage cytotoxicity) was measured. The cytotoxic effect was determined by well-known colorimetric MTT assay (Mossman, T. 1983 Rapid colorimetric assay for cellular growth and survival: application to proliferation and cytotoxicity assays Journal of Immunological Methods, volume 65, pages 55-63) for assessing cell metabolic activity.
Based on percentage cytotoxicity data, IC50 values were determined using the software GraphPad Prism version 4.01.
(§1) Combination Index (CI) values were determined for each drug concentration combination. The CI values were calculated based on the IC50 values using the formula as given in below.
A study was performed to determine the effect of the concentration of the recombinant lectin represented by SEQ ID NO: 1 on the IC50 of Cisplatin for cytotoxicity in T24 cells. Conversely the effect of the concentration of Cisplatin on the IC50 of the recombinant lectin represented by SEQ ID NO: 1.
Similarly another study was performed for Gemcitabine in combination with the recombinant lectin of SEQ ID NO: 1.
This was performed using the same techniques as in Example 1-1.
In a further study, T24 cells were treated with Cisplatin (1 μM-500 μM) in combination with SEQ ID NO: 1(2.5 μg/mL-80 μg/mL) for 48 h. Similarly another set of cells were treated with Gemcitabine (1 μM-300 μM) in combination with SEQ ID NO: 1 (2.5 μg/mL-80 μg/mL). Combination Index values were determined for each drug combination and resultant antagonistic, additive or synergistic effect was determined, as described in Example 1-2.

KB cell line = test system: KB cell line
Description: A study was performed to determine the effect of the concentration of the recombinant lectin represented by SEQ ID NO: 1 on the IC50 of5-FU for cytotoxicity in KB cells.
Similarly another study was performed for Cisplatin in combination with the recombinant lectin of SEQ ID NO: 1.
Similarly another set of cells were treated with Cisplatin(0.1 μM to 1.5 μM)in combination with SEQ ID NO: 1(5.0 μg/mL-90 μg/mL).

PANC-1 cell line = test system: PANC-1 cell line
Description: The cytotoxic effect on each combination was determined by MTT assay.
as §1

[1] = in combination with Cisplatin, paired with Cisplatin conc. of the same table row

B1: SEQ ID NO: 1: recombinant lectin protein, variant of the S. rolfsii lectin amino acid sequence (reported as Rec-2 in WO 2010/095143) (protein)
chain: TYKITVRVYQTNPDAFFHPVEKTVWKYANGGTWTITDDQHVLTMGGSGTSGTLRFHADNGESFTATFGVHNYKRWCDIVTNLAADETGMVINQQYYSQKNREEARERQLSNYQVKNAKGRNFQIVYTEAEGNDLHANLIIG
- IC50 of SEQ ID NO: 1 (T24 cell line; Cisplatin 0 μM): 11.470 µg/mL
- IC50 of SEQ ID NO: 1 (T24 cell line; Cisplatin 1 μM): 11.460 µg/mL
- IC50 of SEQ ID NO: 1 (T24 cell line; Cisplatin 10 μM): 2.375 µg/mL
- IC50 of SEQ ID NO: 1 (T24 cell line; Cisplatin 25 μM): 1.062 µg/mL
- IC50 of SEQ ID NO: 1 (T24 cell line; Cisplatin 50 μM): 1.081 µg/mL
- IC50 of SEQ ID NO: 1 (T24 cell line; Cisplatin 100 μM): 0.944 µg/mL
- IC50 of SEQ ID NO: 1 (T24 cell line; Cisplatin 500 μM): 0.716 µg/mL
- IC50 of SEQ ID NO: 1 (T24 cell line; Gemcitabine 0 μM): 10.350 µg/mL
- IC50 of SEQ ID NO: 1 (T24 cell line; Gemcitabine 1 μM): 2.242 µg/mL
- IC50 of SEQ ID NO: 1 (T24 cell line; Gemcitabine 10 μM): 0.892 µg/mL
- IC50 of SEQ ID NO: 1 (T24 cell line; Gemcitabine 50 μM): 0.626 µg/mL
- IC50 of SEQ ID NO: 1 (T24 cell line; Gemcitabine 100 μM): 0.155 µg/mL
- IC50 of SEQ ID NO: 1 (T24 cell line; Gemcitabine 200 μM): 0.149 µg/mL
- IC50 of SEQ ID NO: 1 (T24 cell line; Gemcitabine 300 μM): 0.029 µg/mL
- Conc. of SEQ ID NO: 1 showing synergistic effect (T24 cell line; [1]): 5 to 80 µg/mL
- Conc. of SEQ ID NO: 1 showing synergistic effect (T24 cell line; in combination with Gemcitabine, paired with Gemcitabine conc. of the same table row): 2.5 to 80 µg/mL
- IC50 of SEQ ID NO: 1 (KB cell line; 5-FU 0 μM): 17.3800 µg/mL
- IC50 of SEQ ID NO: 1 (KB cell line; 5-FU 0.01 μM): 0.5800 µg/mL
- IC50 of SEQ ID NO: 1 (KB cell line; 5-FU 0.1 μM): 0.9080 µg/mL
- IC50 of SEQ ID NO: 1 (KB cell line; 5-FU 0.5 μM): 0.1141 µg/mL
- IC50 of SEQ ID NO: 1 (KB cell line; 5-FU 1 μM): 0.0555 µg/mL
- IC50 of SEQ ID NO: 1 (KB cell line; 5-FU 5 μM): 0.0871 µg/mL
- IC50 of SEQ ID NO: 1 (KB cell line; 5-FU […]): 0.5010 µg/mL
- IC50 of SEQ ID NO: 1 (KB cell line; Cisplatin 0 μM): 38.110 µg/mL
- IC50 of SEQ ID NO: 1 (KB cell line; Cisplatin 0.1 μM): 21.190 µg/mL
- IC50 of SEQ ID NO: 1 (KB cell line; Cisplatin 0.5 μM): 2.694 µg/mL
- IC50 of SEQ ID NO: 1 (KB cell line; Cisplatin 0.75 μM): 0.597 µg/mL
- IC50 of SEQ ID NO: 1 (KB cell line; Cisplatin 1.0 μM): 0.316 µg/mL
- IC50 of SEQ ID NO: 1 (KB cell line; Cisplatin 1.5 μM): 0.303 µg/mL
- IC50 of SEQ ID NO: 1 (KB cell line; Cisplatin […]): 11.240 µg/mL
- Conc. of SEQ ID NO: 1 showing synergistic effect (KB cell line; in combination with 5-FU, paired with 5-FU conc. of the same table row): 5 to 90 µg/mL
- Conc. of SEQ ID NO: 1 showing synergistic effect (KB cell line; [1]): 10 to 90 µg/mL and 5 µg/mL
- IC50 of SEQ ID NO: 1 (PANC-1 cell line; 5-FU 0 μM): 24.630 µg/mL
- IC50 of SEQ ID NO: 1 (PANC-1 cell line; 5-FU 0.1 μM): 686.900 µg/mL
- IC50 of SEQ ID NO: 1 (PANC-1 cell line; 5-FU 1 μM): 22.490 µg/mL
- IC50 of SEQ ID NO: 1 (PANC-1 cell line; 5-FU 10 μM): 6.842 µg/mL
- IC50 of SEQ ID NO: 1 (PANC-1 cell line; 5-FU 50 μM): 1.690 µg/mL
- IC50 of SEQ ID NO: 1 (PANC-1 cell line; 5-FU 100 μM): 1.070 µg/mL
- IC50 of SEQ ID NO: 1 (PANC-1 cell line; 5-FU […] μM): 0.098 µg/mL
- IC50 of SEQ ID NO: 1 (PANC-1 cell line; Gemcitabine 0 μM): 25.060 µg/mL
- IC50 of SEQ ID NO: 1 (PANC-1 cell line; Gemcitabine 0.01 μM): 55.490 µg/mL
- IC50 of SEQ ID NO: 1 (PANC-1 cell line; Gemcitabine 0.1 μM): 19.450 µg/mL
- IC50 of SEQ ID NO: 1 (PANC-1 cell line; Gemcitabine 1 μM): 14.130 µg/mL
- IC50 of SEQ ID NO: 1 (PANC-1 cell line; Gemcitabine 5 μM): 12.230 µg/mL
- IC50 of SEQ ID NO: 1 (PANC-1 cell line; Gemcitabine 25 μM): 2.044 µg/mL
- IC50 of SEQ ID NO: 1 (PANC-1 cell line; Gemcitabine 50 μM): 0.917 µg/mL
